Reference: patent publication US20220112244A1 (DOMPE FARMACEUTICI S P A, published 2022)

Target: IL-17A (agonist in the IL-17RA/IL17RC dimerization assay) (UniProt Q16552 24-155)
Assay: cell-based or functional assay

Chain of IL-17A (agonist in the IL-17RA/IL17RC dimerization assay) (Q16552 24-155 limits assumed): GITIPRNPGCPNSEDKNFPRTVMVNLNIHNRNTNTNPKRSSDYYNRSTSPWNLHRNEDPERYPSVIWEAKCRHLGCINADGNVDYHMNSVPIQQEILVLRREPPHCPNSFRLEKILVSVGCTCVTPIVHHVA

Binder | IC50 in IL-17RA/IL7RC dimerization assay [µM]
Ac-IHVTIPADLWDWKNK-NH2 [peptide of SEQ ID NO: 213] | < 10
Ac-IHVTIPADLWDFINK-NH2 [peptide of SEQ ID NO: 210] | < 10
Ac-VHVTVPQELYEWVEE-NH2 [peptide of SEQ ID NO: 229] | < 10
Ac-VRAYVPADLWDWINK-NH2 [peptide of SEQ ID NO: 243] | < 10
Ac-VHVSIPQELWEWVRR-NH2 [peptide of SEQ ID NO: 230] | < 10
Ac-VRGYVPADLWDWINK-NH2 [peptide of SEQ ID NO: 242] | < 10
Ac-IHVTIPAQLWDWINK-NH2 [peptide of SEQ ID NO: 199] | < 10
Ac-IHVTIPADIWDWINK-NH2 [peptide of SEQ ID NO: 205] | < 10
Ac-IHVTIPAYLWDWINK-NH2 [peptide of SEQ ID NO: 200] | < 10
Ac-IHVTIPADLWDWINH-NH2 [peptide of SEQ ID NO: 222] | < 10
Ac-IHVTIPADLWDWIDK-NH2 [peptide of SEQ ID NO: 221] | < 10
Ac-VMVTIPADLYEWIEE-NH2 [peptide of SEQ ID NO: 18] | < 0.4
Ac-IHVTIPADPWDWINK-NH2 [peptide of SEQ ID NO: 203] | < 10
Ac-IHVTIPADLWDWFNK-NH2 [peptide of SEQ ID NO: 218] | < 10
Ac-LRISVPADLWDWINK-NH2 [peptide of SEQ ID NO: 240] | < 10
Ac-IHVTIPADLWDWGNK-NH2 [peptide of SEQ ID NO: 215] | < 10
Ac-VMVTIPADLYEWINK-NH2 [peptide of SEQ ID NO: 16] | < 0.4
Ac-LRIYVPADLWDWINK-NH2 [peptide of SEQ ID NO: 241] | < 10
Ac-VHVTVPQELWEWVRR-NH2 [peptide of SEQ ID NO: 224] | < 10
Ac-VHVTVPQELWEWVEE-NH2 [peptide of SEQ ID NO: 227] | < 10
Ac-IHVTIPIDLWDWINK-NH2 [peptide of SEQ ID NO: 196] | < 10

Binder | IC50 in IL-17RA/IL7RC dimerization assay [µM]
Ac-IHVTIPNDLWDWINK-NH2 [peptide of SEQ ID NO: 197] | < 10
Ac-VHVTVPQEIYEWVRR-NH2 [peptide of SEQ ID NO: 236] | < 10
Ac-IHVTIPQDLWDWINK-NH2 [peptide of SEQ ID NO: 198] | < 10
Ac-IHVTIPADVWDWINK-NH2 [peptide of SEQ ID NO: 204] | < 10
Ac-IHVTIPLEIFEWAQH-NH2 [peptide of SEQ ID NO: 247] | < 10
Ac-VHVSVPQELWEWVRR-NH2 [peptide of SEQ ID NO: 231] | < 10
Ac-VRLYVPADLWDWINK-NH2 [peptide of SEQ ID NO: 244] | < 10
Ac-IHVTIIADLWDWINK-NH2 [peptide of SEQ ID NO: 190] | < 10
Ac-VHVSVPQELYEWVRR-NH2 [peptide of SEQ ID NO: 232] | < 10
Ac-IHVTIPADLHDWINK-NH2 [peptide of SEQ ID NO: 206] | < 10
Ac-IHVTIPADLWNWINK-NH2 [peptide of SEQ ID NO: 208] | < 10
Ac-VRIYLPADLWDWINK-NH2 [peptide of SEQ ID NO: 245] | < 10
Ac-VHVTVPQELFEWVRR-NH2 [peptide of SEQ ID NO: 225] | < 10
Ac-VHVTVPQELFEWVEE-NH2 [peptide of SEQ ID NO: 228] | < 10
Ac-IHVTIPLEIFEWLQH-NH2 [peptide of SEQ ID NO: 246] | < 10
Ac-IHVTIPADLWDWYNK-NH2 [peptide of SEQ ID NO: 219] | < 10
Ac-IHVTIPADLWDHINK-NH2 [peptide of SEQ ID NO: 209] | < 10
Ac-IHVTIPADLWDWANK-NH2 [peptide of SEQ ID NO: 214] | < 10
Ac-IHVTIPLEIFEWLQR-NH2 [peptide of SEQ ID NO: 248] | < 10
Ac-VRVTVPQELYEWVRR-NH2 [peptide of SEQ ID NO: 234] | < 10
Ac-IHVTIPADLWDWPNK-NH2 [peptide of SEQ ID NO: 217] | < 10

Binder | IC50 in IL-17RA/IL7RC dimerization assay [µM]
Ac-IHVTIPADLWDWENK-NH2 [peptide of SEQ ID NO: 212] | < 10
Ac-IHVTIPADLWDWLNK-NH2 [peptide of SEQ ID NO: 216] | < 10
Ac-IHVTIPLDLWDWINK-NH2 [peptide of SEQ ID NO: 193] | < 10
Ac-VHVTVPQELYEWVRR-NH2 [peptide of SEQ ID NO: 226] | < 10
Ac-VRVTVPQELWEWVRR-NH2 [peptide of SEQ ID NO: 235] | < 10
Ac-VRVTIPQELWEWVRR-NH2 [peptide of SEQ ID NO: 233] | < 10
Ac-IHVTIPLEVFEWLQH-NH2 [peptide of SEQ ID NO: 249] | < 10
Ac-VMVTIPADLYEWIRR-NH2 [peptide of SEQ ID NO: 17] | < 0.4
Ac-IHVTIPADGWDWINK-NH2 [peptide of SEQ ID NO: 202] | < 10
Ac-IHVTIPVDLWDWINK-NH2 [peptide of SEQ ID NO: 195] | < 10
Ac-IHVTIPADLFDWINK-NH2 [peptide of SEQ ID NO: 207] | < 10
Ac-IHVTIPADLWDWIQK-NH2 [peptide of SEQ ID NO: 220] | < 10
Ac-IHVTIPPDLWDWINK-NH2 [peptide of SEQ ID NO: 194] | < 10
Ac-IHVTIPADLWDWVEE-NH2 [peptide of SEQ ID NO: 15] | < 0.4
Ac-IHVTIPADLWDYINK-NH2 [peptide of SEQ ID NO: 211] | < 10
Ac-IHVTINADLWDWINK-NH2 [peptide of SEQ ID NO: 191] | < 10
Ac-VHVTIPQEIWEWVRR-NH2 [peptide of SEQ ID NO: 237] | < 10
Ac-VKISVPADLWDWINK-NH2 [peptide of SEQ ID NO: 239] | < 10
Ac-VHFTVPQELYEWVRR-NH2 [peptide of SEQ ID NO: 238] | < 10
Ac-IHVTIPADLWDWIND-NH2 [peptide of SEQ ID NO: 223] | < 10
Ac-IHVTIPADAWDWINK-NH2 [peptide of SEQ ID NO: 201] | < 10
